Reference: IntAct's records for PubMed 22510990

B1: Protein Niban 1 (Homo sapiens), Q9BZQ8 (parent)
chain: MGGSASSQLDEGKCAYIRGKTEAAIKNFSPYYSRQYSVAFCNHVRTEVEQQRDLTSQFLKTKPPLAPGTILYEAELSQFSEDIKKWKERYVVVKNDYAVESYENKEAYQRGAAPKCRILPAGGKVLTSEDEYNLLSDRHFPDPLASSEKENTQPFVVLPKEFPVYLWQPFFRHGYFCFHEAADQKRFSALLSDCVRHLNHDYMKQMTFEAQAFLEAVQFFRQEKGHYGSWEMITGDEIQILSNLVMEELLPTLQTDLLPKMKGKKNDRKRTWLGLLEEAYTLVQHQVSEGLSALKEECRALTKGLEGTIRSDMDQIVNSKNYLIGKIKAMVAQPAEKSCLESVQPFLASILEELMGPVSSGFSEVRVLFEKEVNEVSQNFQTTKDSVQLKEHLDRLMNLPLHSVKMEPCYTKVNLLHERLQDLKSRFRFPHIDLVVQRTQNYMQELMENAVFTFEQLLSPHLQGEASKTAVAIEKVKLRVLKQYDYDSSTIRKKIFQEALVQITLPTVQKALASTCKPELQKYEQFIFADHTNMIHVENVYEEILHQILLDETLKVIKEAAILKKHNLFEDNMALPSESVSSLTDLKPPTGSNQASPARRASAILPGVLGSETLSNEVFQESEEEKQPEVPSSLAKGESLSLPGPSPPPDGTEQVIISRVDDPVVNPVATEDTAGLPGTCSSELEFGGTLEDEEPAQEEPEPITASGSLKALRKLLTASVEVPVDSAPVMEEDTNGESHVPQENEEEEEKEPSQAAAIHPDNCEESEVSEREAQPPCPEAHGEELGGFPEVGSPASPPASGGLTEEPLGPMEGELPGEACTLTAHEGRGGKCTEEGDASQQEGCTLGSDPICLSESQVSEEQEEMGGQSSAAQATASVNAEEIKVARIHECQWVVEDAPNPDVLLSHKDDVKEGEGGQESFPELPSEE

Variants of: B1
Settings: with npm_human NPM1, P06748
Sequence of npm_human NPM1, P06748 (P06748 whole entry): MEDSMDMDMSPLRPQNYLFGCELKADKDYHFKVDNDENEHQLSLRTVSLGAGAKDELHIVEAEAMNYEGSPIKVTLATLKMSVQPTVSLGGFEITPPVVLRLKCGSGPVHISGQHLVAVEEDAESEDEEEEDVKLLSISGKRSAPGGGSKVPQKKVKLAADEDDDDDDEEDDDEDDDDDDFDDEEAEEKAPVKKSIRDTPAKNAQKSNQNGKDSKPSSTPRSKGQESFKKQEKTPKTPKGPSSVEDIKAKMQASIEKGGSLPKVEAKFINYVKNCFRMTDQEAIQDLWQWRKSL

| effect of a mutation on the interaction | Variant |
| --- | --- |
| decreasing interaction | S602A |

Variants of: B1
Settings: with npm_human NPM1, P06748
Remark: another data set of the same source

| effect of a mutation on the interaction | Variant |
| --- | --- |
| increasing interaction | S602D |
